The record followed here is patent US20120027679A1 (CANON, published 2012).

Where no end group is shown, it is not given here. Side-chain parts run from the residue outwards. maleimide = maleimide group (reactive functional group for coupling a ligand); EO 2 kDa = ethylene oxide linker of molecular weight 2000

For assay [1], the target named is T1, HER2 (epidermal growth factor receptor 2) on N87 cells (UniProt P04626 23-1255, limits assumed).
T1 construct: whole, on cells; N87 cells are used as HER2-positive cells; also called HER2-positive cells (N87); HER2-expressing cells
The experiment in a line: saturation binding to N87 cells, Scatchard plot, apparent Kd. Here is the method:
(§1) Each particle was evaluated for its binding capability to HER2-expressing cells. On the day before evaluation, HER2-positive cells (N87 cells) were seeded over a 24-well plate (5×10⁵ cells/well). Next day, after medium removal, 200 μL of a growth medium was placed therein, and the particle sample was then added to each well. The plate was left standing in a CO₂ incubator at 37° C. for 4 hours. Then, the medium containing the particle was removed. The wells were fully washed twice with 1 mL of PBS. After removal of PBS, 1% Triton-X100/PBS solution was added at a concentration of 150 μL/well for cell lysis. The cells were incubated at room temperature for 2 hours or longer. Subsequently, concentrated hydrochloric acid (12 N) was added at a concentration of 150 μL/well, and the cells were incubated at room temperature for 2 hours or longer. The amount of iron in this acid lysate of the sample (6 N HCl solution, 300 μL) was measured to determine the concentration of the particle bound to the cell. A Scatchard plot was prepared from the saturation binding curve of the particle for N87, and an apparent equilibrium dissociation constant (Kd) of the particle for the cell was determined.
(§2) According to Example 8, a Scatchard plot was prepared from the saturation binding curve of each particle for N87 cells, and an apparent equilibrium dissociation constant (Kd) of the particle for the cell was determined.

Assay [2] concerns the target T1, HER2 (epidermal growth factor receptor …). The experiment in a line: saturation binding to N87 cells (cell-bound iron measured), Scatchard plot, apparent Kd. Here is the method:
as §1

Assay [3] has as its target T2, Recombinant Human ErbB2/Fc Chimera (R&D Systems, Inc.) (human, UniProt P04626 23-652).
T2 construct: Bought; Amine-coupled to a CM-5 chip, about 1000 to 2000 RU; also called HER2; antigen; Fc part of the bought chimera not given
Kind of assay: SPR (Biacore X), ErbB2/Fc on CM-5 chip, Scatchard plot of Req, apparent Kd of the particle. For orientation: In SPR one partner is held on a chip, and binding of the other changes the refractive index at the surface.

The target in assay [4] is T1, HER2 (epidermal growth factor receptor …). The experiment in a line: saturation binding to N87 cells, Scatchard plot, apparent Kd; HBP2 particle. The procedure:
as §1, with “Subsequently, concentrated hydrochloric acid (12 N) was added at a concentration of 150 μL/well, and the cells were incubated at room temperature for 2 hours or longer.” left out
as §2

Assay [5] has the same target. Kind of assay: saturation binding to N87 cells, Scatchard plot, apparent Kd; HBP3 particle. The procedure:
as §1, with “Subsequently, concentrated hydrochloric acid (12 N) was added at a concentration of 150 μL/well, and the cells were incubated at room temperature for 2 hours or longer.” left out
as §2

Assay [6] has the same target. The experiment in a line: saturation binding to N87 cells, Scatchard plot, apparent Kd; HBP1 particle. Here is the method: as §1, with “Subsequently, concentrated hydrochloric acid (12 N) was added at a concentration of 150 μL/well, and the cells were incubated at room temperature for 2 hours or longer.” left out
as §2

On to MARSGLGGKGSC([maleimide-EO 2 kDa-iron oxide nanoparticle 200 nm]) (not fully specified) [HBP2-EO2k-NP-200: HER2-binding peptide-immobilized 200-nm particle with ethylene oxide linker of molecular weight 2000, listing 1 of 4 here], for which the Kd in assay [1] was 90 pM.
Consider MARSGLGGKGSC([maleimide-EO 2 kDa-iron oxide nanoparticle 200 nm]) (not fully specified) [HBP4-EO2k-NP-200: HER2-binding peptide-immobilized 200-nm particle with ethylene oxide linker of molecular weight 2000, listing 2 of 4 here], for which the Kd in assay [1] worked out at 110 pM.
For MARSGLGGKGSC([maleimide-PEG 300-iron oxide nanoparticle 20 nm]) (not fully specified) [HBP-EO-NP-20: HER2-binding peptide-immobilized 20-nm particle containing an iron oxide particle], the Kd is 78000 pM in assay [2] and 36700 pM in assay [3].
In the case of MARSGLGGKGSC([maleimide-PEG 300-iron oxide nanoparticle 200 nm]) (not fully specified) [HBP2-EO-NP-200: HER2-binding peptide-immobilized 200-nm particle containing an iron oxide particle], in assay [4], the Kd is 430 pM.
Regarding MARSGLGGKGSC([maleimide-PEG 300-iron oxide nanoparticle 200 nm]) (not fully specified) [HBP3-EO-NP-200: HER2-binding peptide-immobilized 200-nm particle containing an iron oxide particle], in assay [5], the Kd was 490 pM.
As for MARSGLGGKGSC([maleimide-EO 2 kDa-iron oxide nanoparticle 200 nm]) (not fully specified) [HBP3-EO2k-NP-200: HER2-binding peptide-immobilized 200-nm particle with ethylene oxide linker of molecular weight 2000, listing 3 of 4 here], the Kd in assay [1] came out at 80 pM.
MARSGLGGKGSC([maleimide-EO 2 kDa-iron oxide nanoparticle 200 nm]) (not fully specified) [HBP1-EO2k-NP-200: HER2-binding peptide-immobilized 200-nm particle with ethylene oxide linker of molecular weight 2000, listing 4 of 4 here]: the Kd in assay [1] was 70 pM.
For the molecule MARSGLGGKGSC([maleimide-PEG 300-iron oxide nanoparticle 200 nm]) (not fully specified) [HBP1-EO-NP-200: HER2-binding peptide-immobilized 200-nm particle containing an iron oxide particle], the Kd in assay [6] was 670 pM.
